The results in this text go back to paper PMC8111768.

Assay [1] deals with VIC16 REFORMab SDIEALGA (G236A/S239D/A330L/I332E) (mouse | human). Description: SPR.
Assay [2] deals with VIC16 REFORMab EFTEA (G236A/S267E/H268F/S324T/I332E) (mouse | human). Description: SPR.

recombinant human FcγR3B, sequence (O75015 17-200): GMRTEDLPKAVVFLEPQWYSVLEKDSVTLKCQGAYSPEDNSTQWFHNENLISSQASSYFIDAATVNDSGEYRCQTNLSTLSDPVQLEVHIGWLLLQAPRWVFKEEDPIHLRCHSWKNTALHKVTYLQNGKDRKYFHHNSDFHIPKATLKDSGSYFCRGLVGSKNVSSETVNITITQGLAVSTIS

With “recombinant human FcγR3B (from UniProt O75015 17-200) (receptor)”, the Kd worked out at 3.2 µM in assay [1] and 475 µM in assay [2].
